± gives the uncertainty stated by the source.
Assay: self-splicing fitness, log relative to wild type (ln ratio); higher = more splicing; Tetrahymena group I intron in knt gene, E. coli kanamycin selection, DiMSum; sequences stand for … in CUCUCU…GGAGGGAAAAGUUAUCAGGCAUGCACCUGGUAGCUAGUCUUUAAACCAAUAGAUUGCAUCGGUUUAAAAGGCAAGACCGUCAAAUUGCGGGAAAGGGGUCAACAGCCGUUCAGUACCAAGUCUCAGGGGAAACUUUGAGAUGGCCUUGCAAAGGGUAUGGUAAUAAGCUGACGGACAUGGUCCUAACCACGCAGCCAAGUCCUAAGUCAACAGAUCUUCUGUUGAUAUGGAUGCAGUUCACAGACUAAAUGUCGGUCGGGGAAGAUGUAUUCUUCUCAUAAGAUAUAGUCGGACCUCUCCUUAAUGGGAGCUAGCGGAUGAAGUGAUGCAACACUGGAGCCGCUGGGAACUAAUUUGUAUGCGAAAGUAUAUUGAUUAGUUUUGGAGUACUCGUGGUCG
How it was run: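 Six replicate transformations of E. coli BL21(DE3) with a pET-22b(+) library were grown overnight at 37°C or 30°C. The library randomised all eight P1ex-region intron nucleotides, the intron lying in the knt kanamycin-resistance gene, and plates were LB agar with or without 25 μg/mL kanamycin plus 100 μg/mL carbenicillin, 50 μM IPTG and 0.2% rhamnose. Pooled colonies were amplicon-sequenced on an Illumina HiSeq 2500, and fitness is the DiMSum error-weighted combination of wild-type-normalised replicate fold changes, kanamycin versus none.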

Sequence | self-splicing fitness (ln) (30 °C) | self-splicing fitness (ln) (37 °C)
ACUCAGCAAUAUUACGGUAU | -1.67 ± 0.057 | -0.522 ± 0.093
UGUAAGCAAUAUUACGAAUG | -0.511 ± 0.077 | -0.125 ± 0.099
CUUCAGCAAUAUUACGUGAG | -0.619 ± 0.031 | -0.0413 ± 0.054
UAUUAGCAAUAUUACGUGCA | -0.96 ± 0.16 | -0.986 ± 0.16
GAUGAGCAAUAUUACGCUGA | -3.11 ± 0.44 | -2.46 ± 0.38
GCGUAGCAAUAUUACGCCAA |  | -2.7 ± 0.48
UGUGAGCAAUAUUACGGUUU | -3.66 ± 0.21 | -2.65 ± 0.25
AGCCAGCAAUAUUACGGCCC |  | -0.0646 ± 0.48
UGGCAGCAAUAUUACGUAUA | -1.29 ± 0.097 | 0.00255 ± 0.11
CUAUAGCAAUAUUACGUAUG | -1.52 ± 0.085 | -0.647 ± 0.099
UAUCAGCAAUAUUACGAGCU | -2.71 ± 0.28 | -1.35 ± 0.21
GAUAAGCAAUAUUACGGCUC | -0.362 ± 0.17 | 0.29 ± 0.2
AUCUAGCAAUAUUACGCCCA | -0.101 ± 0.29 | -1.32 ± 0.24
UAAAAGCAAUAUUACGAAGU | -2.95 ± 0.29 | -2.23 ± 0.21
CCAGAGCAAUAUUACGGGUU | -3.1 ± 0.23 | -2.63 ± 0.26
AAUCAGCAAUAUUACGUUAC | -2.78 ± 0.13 | -1.08 ± 0.1
UAGGAGCAAUAUUACGUAGU | -3.13 ± 0.3 | -1.81 ± 0.3
UAUGAGCAAUAUUACGUUCU | -3.57 ± 0.29 | -2.67 ± 0.34
AGCUAGCAAUAUUACGUCAU | -2.65 ± 0.1 | -1.54 ± 0.1
GGCUAGCAAUAUUACGUGGC | -2.66 ± 0.28 | -1.23 ± 0.28

Sequence | self-splicing fitness (ln) (30 °C) | self-splicing fitness (ln) (37 °C)
UCCUAGCAAUAUUACGAACG | -1.85 ± 0.2 | -1.78 ± 0.3
CCUAAGCAAUAUUACGCAGG | -4.8 ± 0.29 | -2.37 ± 0.25
UAAGAGCAAUAUUACGGUAU | -3.87 ± 0.23 | -2.27 ± 0.18
GCAAAGCAAUAUUACGAAUA | -2.56 ± 0.17 | -0.704 ± 0.13
UGGCAGCAAUAUUACGCGGG | -2.76 ± 0.27 | -1.48 ± 0.24
UAGGAGCAAUAUUACGCACA | -0.278 ± 0.33 | -0.212 ± 0.38
UUGAAGCAAUAUUACGAUAA | -0.132 ± 0.23 | 0.686 ± 0.36
UCGCAGCAAUAUUACGUGAG | -0.263 ± 0.042 | -0.325 ± 0.063
AGCCAGCAAUAUUACGAUCC | -2.27 ± 0.15 | -1.02 ± 0.19
GAGAAGCAAUAUUACGCGCC | -1.88 ± 0.33 | -0.596 ± 0.23
UAUCAGCAAUAUUACGGAAG | -0.901 ± 0.1 | -0.651 ± 0.12
UCCAAGCAAUAUUACGACAU | -3.54 ± 0.021 | -2.31 ± 0.036
GCUGAGCAAUAUUACGUUCG | -2.34 ± 0.12 | -1.17 ± 0.12
UCGUAGCAAUAUUACGGAUG |  | -1.89 ± 0.47
GAUCAGCAAUAUUACGGUAG | -0.683 ± 0.084 | 0.269 ± 0.1
UUCAAGCAAUAUUACGCUUC | -3.09 ± 0.22 | -2.8 ± 0.44
UACUAGCAAUAUUACGUAAC | -2.8 ± 0.17 | -3.33 ± 0.42
CCAAAGCAAUAUUACGUCGA | -3.66 ± 0.15 | -2.92 ± 0.18
AUGUAGCAAUAUUACGAGUG | -2.52 ± 0.12 | -2.72 ± 0.18
